Target: drosophila GABAB2 subunit, EM construct (residues 24–790) (Drosophila melanogaster) (UniProt Q9BML6)
Sequence (Q9BML6 entry or part of it): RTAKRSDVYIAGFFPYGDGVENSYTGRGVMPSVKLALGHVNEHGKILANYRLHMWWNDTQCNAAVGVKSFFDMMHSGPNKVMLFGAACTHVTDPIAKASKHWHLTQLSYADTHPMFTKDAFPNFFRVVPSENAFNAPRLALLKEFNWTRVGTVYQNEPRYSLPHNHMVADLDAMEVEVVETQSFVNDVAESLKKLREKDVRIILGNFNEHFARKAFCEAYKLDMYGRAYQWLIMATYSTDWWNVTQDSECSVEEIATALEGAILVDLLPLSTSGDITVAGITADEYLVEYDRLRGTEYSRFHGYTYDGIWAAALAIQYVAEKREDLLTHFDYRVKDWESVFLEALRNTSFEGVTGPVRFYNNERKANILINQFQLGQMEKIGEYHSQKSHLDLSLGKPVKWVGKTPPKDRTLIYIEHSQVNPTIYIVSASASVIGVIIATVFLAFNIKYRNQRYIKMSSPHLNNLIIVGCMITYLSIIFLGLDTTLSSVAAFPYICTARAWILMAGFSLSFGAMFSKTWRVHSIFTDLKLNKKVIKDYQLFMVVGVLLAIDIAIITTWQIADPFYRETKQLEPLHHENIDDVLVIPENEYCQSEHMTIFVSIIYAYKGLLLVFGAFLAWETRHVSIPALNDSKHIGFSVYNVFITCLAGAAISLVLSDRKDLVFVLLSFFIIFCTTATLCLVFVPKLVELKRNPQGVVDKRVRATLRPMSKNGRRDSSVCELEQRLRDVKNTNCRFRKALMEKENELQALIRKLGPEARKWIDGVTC

dGB1^III (E666A and H566A) (from UniProt Q9BML7 1-840) (receptor)
basal IP1 accumulation (constitutive activity), HEK293 cells co-transfected with the dGB1 mutant and wild-type dGB2, against the wild-type receptor (% increase in IP1 accumulation): 59

dGB1^I (V658L) (from UniProt Q9BML7 1-840) (receptor)
basal IP1 accumulation (constitutive activity), HEK293 cells co-transfected with the dGB1 mutant and wild-type dGB2, against the wild-type receptor (% increase in IP1 accumulation): 50

dGB1^I-II-III (V658L, F659L, E666A, H566A) (from UniProt Q9BML7 1-840) (receptor)
basal IP1 accumulation (constitutive activity), HEK293 cells co-transfected with the dGB1 mutant and wild-type dGB2, against dGB1^III (% increase in IP1 accumulation): 22

dGB1^I-II (V658L, F659L) (from UniProt Q9BML7 1-840) (receptor)
basal IP1 accumulation (constitutive activity), HEK293 cells co-transfected with the dGB1 mutant and wild-type dGB2, against dGB1^III (% increase in IP1 accumulation): 17

dGB1^II (F659L) (from UniProt Q9BML7 1-840) (receptor)
basal IP1 accumulation (constitutive activity), HEK293 cells co-transfected with the dGB1 mutant and wild-type dGB2, against the wild-type receptor (% increase in IP1 accumulation): 66

Source: paper PMC12499500
